# Laboratory results from patent US20250122539A1, “LARGE SCALE PRODUCTION OF DIVARIN, DIVARINIC ACID AND OTHER ALKYL RESORCINOLS BY FERMENTATION” (priority 2021, published 2025).
# B1: At4CLL6: 4-coumarate--CoA ligase-like 6 from Arabidopsis thaliana (Uniprot Q84P24), SEQ ID NO: 11 (protein, listed as Arabidopsis thaliana)
# chain: MAATHLHIPPNPKTQTSHQNPPFWFSSKTGIYTSKFPSLHLPVDPNLDAVSALFSHKHHGDTALIDSLTGFSISHTELQIMVQSMAAGIYHVLGVRQGDVVSLVLPNSVYFPMIFLSLISLGAIVTTMNPSSSLGEIKKQVSECSVGLAFTSTENVEKLSSLGVSVISVSESYDFDSIRIENPKFYSIMKESFGFVPKPLIKQDDVAAIMYSSGTTGASKGVLLTHRNLIASMELFVRFEASQYEYPGSSNVYLAALPLCHIYGLSLFVMGLLSLGSTIVVMKRFDASDVVNVIERFKITHFPVVPPMLMALTKKAKGVCGEVFKSLKQVSSGAAPLSRKFIEDFLQTLPHVDLIQGYGMTESTAVGTRGFNSEKLSRYSSVGLLAPNMQAKVVDWSSGSFLPPGNRGELWIQGPGVMKGYLNNPKATQMSIVEDSWLRTGDIAYFDEDGYLFIVDRIKEIIKYKGFQIAPADLEAVLVSHPLIIDAAVTAAPNEECGEIPVAFVVRRQETTLSEEDVISYVASQVAPYRKVRKVVMVNSIPKSPTGKILRKELKRILTNSVS
# Experiments:
# [1] = Partitioning of olivetolic acid between organic overlay and aqueous culture phase (shake flask, HPLC); type: physicochemical; conditions: YP + 2% galactose culture
# Experimental: Precultures of LSC3-2 and LSC3-18 were inoculated from YPD streak plates and grown in 30 ml of YP+2% (w/v) glucose in baffled 250 ml shake flasks for approximately 18 hours overnight at 30° C. with 200 rpm shaking. Baffled 250 ml shake flasks containing 30 mL of YP+2% (w/v) galactose, 5 mL of IPM or diethyl sebacate, and 0.04% (w/v) hexanoic acid, were inoculated with 1 mL of preculture and grown for at 30° C. with 200 rpm shaking. After 24 and 48 hours, samples of cell culture broth plus overlay were sampled into microcentrifuge tubes and stored at −20° C. at least overnight. Sample tubes were thawed and aqueous sample and overlay sample were pipetted into plates for HPLC analysis. Overlay samples were diluted 1:1 v/v with methanol in the HPLC plate prior to analysis.
# Total olivetol equivalents are defined as the concentration of olivetol in mg/L, plus the concentration of olivetolic acid in mg/L multiplied by the ratio of the molecular weight of olivetol to olivetolic acid.
# [2] = Partitioning of divarinic acid and divarin into organic solvent overlays (96 well deepwell plate, HPLC); type: physicochemical; conditions: compared with olivetolic acid and olivetol
# Experimental: Several monoester and one diester overlay candidate were compared to IPM for production of divarinic acid and divarin. LSC3-13 precultures were inoculated from YPD streak plates and grown in 300 μL Delft medium+0.79 g/L complete supplement mixture (CSM) (ForMedium, Norfolk, UK)+2% (w/v) glucose in round-bottom square well 96 well deepwell plates for approximately 18 hours overnight at 30° C. with 950 rpm shaking in an Infors plate shaker. 96 well deepwell plate wells containing 300 μL of Delft medium+CSM+2% (w/v) glucose, 60 μL of different overlay solvents, and 0.08% (w/v) butyric acid, were inoculated with 10 μL of preculture and grown for 30° C. with 950 rpm shaking. After 48 hours, the aqueous layer and overlay were sampled on a Bravo automated liquid handling platform (Agilent) and samples from the aqueous and organic overlay phases were subjected to HPLC analysis to measure divarinic acid and divarin production.
# [3] = tested on: hexanoic acid; experiment: Two plasmid screening system for relative AAE activity, hexanoic acid feeding; type: cell-based, Saccharomyces cerevisiae; conditions: average production, LSC3-297/pLOA-049 plus AAE plasmid, Delft medium pH 6.5, 3.44 mM hexanoic acid, 48 hours
# Description: (§1) In order to perform in vivo screening in Saccharomyces cerevisiae for acyl activating enzyme (AAE) variants with enhanced activity and/or expression, a two plasmid screening system was employed to generate an artificial bottleneck in AAE activity. This bottleneck was generated by natural copy number variation of the two plasmids, with a multi-copy 2 micron episomal plasmid, pLOA-049, harboring an olivetol synthase homologue from C. sativa (CsTKS) fused with a T2A self-cleaving peptide (Kearsey et al., FEBS J. 287:1511-1524, 2020) to a gene encoding olivetol acid cyclase from C. sativa (CsOAC), and a lower copy centromeric plasmid with an autonomous replicating sequence (CEN/ARS) harboring different acyl activating enzymes/acyl-CoA synthetases from different organisms. Markers employed on the 2 micron plasmid were orotidine-5′-phosphate decarboxylase from S. cerevisiae (URA3) and on the CEN/ARS plasmid, the multifunctional histidine biosynthesis gene HIS4 from S. cerevisiae. The cassette architecture in the plasmids was based on integrated cassettes in production strain LSC3-2, with a pGAL1-10 bidirectional promoter driving expression of CsTKS and CsOAC from pGAL1 with a S. cerevisiae CYC1 terminator, and insulated downstream of pGAL10 by a S. cerevisiae GRE3 terminator. Likewise on the CEN/ARS plasmid, a bidirectional pGAL1-10 promoter drives expression of CsAAE1 from pGAL10 with a S. cerevisiae GRE3 terminator, and is insulated downstream of pGAL1 by a S. cerevisiae CYC1 terminator.
# (§2) To screen activity of AAE variants, first a CEN/ARS containing plasmid expressing AAEs co-transformed with the 2 micron plasmid expressing CsTKS translationally fused to CsOAC via the T2A self-cleaving peptide into strain LSC3-297 using the transformation method described by Gietz and Schiestl (Nat. Protocols 2:31-34, 2007). Double plasmid transformants were selected on YNB agar with 2% (w/v) glucose and CSM minus histidine and minus uracil (CSM-His-Ura, Sunrise Science Products) and grown in a 30° C. incubator for approximately 48 hours or at room temperature for approximately 72 hours. Individual colonies were picked into wells of 96 deepwell plates containing 0.3 mL per well of Delft medium with 2% (w/v) glucose and 0.75 g/L CSM-His-Ura. Delft medium base contains (per liter solution) 7.5 g ammonium sulfate, 14.4 g potassium phosphate monobasic (added from a 1 M stock solution adjusted to pH 6.5 with sodium hydroxide), 0.5 g magnesium sulfate heptahydrate, 3.6 mL of a trace metal solution (consisting of 130 g/L citric acid monohydrate, 0.574 g/L copper (II) sulfate pentahydrate, 8.07 g/L iron (III) chloride hexahydrate, 0.5 g/L boric acid, 0.333 g/L manganese (II) chloride, 0.2 g/L sodium molybdate, and 4.67 g/L zinc sulfate heptahydrate), and 1.0 ml of a vitamin solution (0.008 g/L biotin, 1.6 g/L calcium pantothenate, 0.008 g/L folic acid, 8 g/L myo-inositol, 1.6 g/L nicotinic acid, 0.8 g/L p-aminobenzoic acid, 1.6 g/L pyridoxal hydrochloride, 0.8 g/L riboflavin, 1.6 g/L thiamine hydrochloride, adjusted to pH […] with sodium hydroxide). Plates were grown for 16-24 hours at 30° C. in a plate shaker incubator maintained at 80% relative humidity and 900 rpm shaking (3 mm diameter throw). Ten microliters of preculture was then used to inoculate wells of 96 deepwell plates containing 0.3 mL per well of Delft medium with 2% (w/v) glucose, 0.75 g/L CSM-His-Ura, either 9.08 mM butyric acid or 3.44 mM hexanoic acid, and for divarin/divarinic acid, additionally 150 mM 2-(N-morpholino) ethanesulfonic acid (MES) at pH 5.5 and with the additional modification of the 1 M potassium phosphate monobasic stock in the Delft medium base also adjusted to pH 5.5 (for olivetol/olivetolic acid production from hexanoic acid, no MES was added and potassium phosphate monobasic solution used in the Delft medium base was at pH 6.5). […]
# [4] = tested on: butyric acid; experiment: Two plasmid screening system for relative AAE activity, butyric acid feeding; type: cell-based, Saccharomyces cerevisiae
# Description: as §1, §2
# [5] = average production, LSC3-297/pLOA-049 plus AAE plasmid, Delft medium pH 5.5 with 150 mM MES, 9.08 mM butyric acid, 48 hours
molecule,measurement,setting,value
"CCCCCc1cc(O)cc(O)c1C(=O)O [OA, olivetolic acid]",partitioning between overlay and aqueous phase,[1]; IPM overlay,partitioned between the IPM and aqueous phases
same,partitioning between overlay and aqueous phase,[1]; diethyl sebacate overlay,entirely partitioned into diethyl sebacate
"CCCc1cc(O)cc(O)c1 [divarin, 1,3-dihydroxy-5-propylbenzene]",partitioning into monoester overlays,[2],partition less effectively
"CCCc1cc(O)cc(O)c1C(=O)O [divarinic acid, 2,4-dihydroxy-6-propylbenzoic acid]",partitioning into monoester overlays,[2],partition less effectively
B1,Olivetol,[3],0.86 mg/L
same,Olivetolic acid,[3],0.91 mg/L
same,Divarin,[4]; [5],5.96 mg/L
same,Divarinic acid,[4]; [5],5.24 mg/L
same,activity as butyryl-CoA synthetases for divarin and divarinic acid production,[4]; over CsAAE1,several-fold activity improvements
